Here are results for 2 substances from patent publication US20020159976A1.

Data set [1] deals with T1, casein peptide αs1-casein(1-17) (UniProt P02662).
T1 sequence: RPKHPIKHQGLPQEVLN

In data set [2] the target is type III mucin partially purified from porcine stomach (porcine). The experiment in a line: dot blot, ~1 ug ligand on nitrocellulose, 125I-labelled binder, autoradiograph density divided by Ponceau S density, mean of two dots.
In data set [3] the target is fibronectin from human plasma (human) (UniProt P02751). The description is as above.
Data set [4] has as its target type IV collagen from human placenta (human) (UniProt P02462). The description is as above.
Chain of UniProt P02462 (P02462 173-1440, chain 1 of 2): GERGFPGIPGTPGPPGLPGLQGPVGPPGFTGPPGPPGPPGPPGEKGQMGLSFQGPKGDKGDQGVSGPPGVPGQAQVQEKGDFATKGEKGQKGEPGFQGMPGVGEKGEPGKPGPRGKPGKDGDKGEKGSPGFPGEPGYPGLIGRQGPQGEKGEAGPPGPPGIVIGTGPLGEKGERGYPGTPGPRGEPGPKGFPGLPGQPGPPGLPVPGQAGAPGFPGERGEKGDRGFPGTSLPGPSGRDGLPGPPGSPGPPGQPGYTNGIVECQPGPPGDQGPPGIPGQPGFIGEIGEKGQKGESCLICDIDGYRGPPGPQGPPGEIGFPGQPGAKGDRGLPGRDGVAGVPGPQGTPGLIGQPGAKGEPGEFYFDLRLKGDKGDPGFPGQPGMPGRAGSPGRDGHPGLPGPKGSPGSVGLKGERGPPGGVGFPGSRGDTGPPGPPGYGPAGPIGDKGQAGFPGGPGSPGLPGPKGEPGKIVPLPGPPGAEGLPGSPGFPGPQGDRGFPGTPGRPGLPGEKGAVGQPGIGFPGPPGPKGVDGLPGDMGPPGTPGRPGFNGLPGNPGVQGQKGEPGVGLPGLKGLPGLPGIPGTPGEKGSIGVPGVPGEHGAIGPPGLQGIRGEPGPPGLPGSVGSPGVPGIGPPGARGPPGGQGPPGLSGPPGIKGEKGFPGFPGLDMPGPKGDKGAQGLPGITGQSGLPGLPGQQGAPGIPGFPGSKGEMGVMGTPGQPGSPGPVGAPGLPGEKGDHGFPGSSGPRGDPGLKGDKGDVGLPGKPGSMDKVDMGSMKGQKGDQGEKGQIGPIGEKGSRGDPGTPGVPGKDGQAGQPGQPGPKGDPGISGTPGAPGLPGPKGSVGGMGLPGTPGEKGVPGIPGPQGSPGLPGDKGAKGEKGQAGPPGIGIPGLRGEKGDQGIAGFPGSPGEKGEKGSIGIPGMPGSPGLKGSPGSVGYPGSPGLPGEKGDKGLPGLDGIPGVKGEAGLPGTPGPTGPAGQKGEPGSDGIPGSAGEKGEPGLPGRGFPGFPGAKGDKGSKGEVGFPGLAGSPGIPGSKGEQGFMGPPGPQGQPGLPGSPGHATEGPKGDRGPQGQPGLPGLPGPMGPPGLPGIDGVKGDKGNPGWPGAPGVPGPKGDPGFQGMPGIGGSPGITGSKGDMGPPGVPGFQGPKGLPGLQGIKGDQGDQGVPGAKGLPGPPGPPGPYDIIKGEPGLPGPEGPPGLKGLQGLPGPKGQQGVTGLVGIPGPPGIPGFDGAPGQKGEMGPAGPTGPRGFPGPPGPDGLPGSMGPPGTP
Chain of UniProt P02462 (P08572 184-1484, chain 2 of 2, further chain): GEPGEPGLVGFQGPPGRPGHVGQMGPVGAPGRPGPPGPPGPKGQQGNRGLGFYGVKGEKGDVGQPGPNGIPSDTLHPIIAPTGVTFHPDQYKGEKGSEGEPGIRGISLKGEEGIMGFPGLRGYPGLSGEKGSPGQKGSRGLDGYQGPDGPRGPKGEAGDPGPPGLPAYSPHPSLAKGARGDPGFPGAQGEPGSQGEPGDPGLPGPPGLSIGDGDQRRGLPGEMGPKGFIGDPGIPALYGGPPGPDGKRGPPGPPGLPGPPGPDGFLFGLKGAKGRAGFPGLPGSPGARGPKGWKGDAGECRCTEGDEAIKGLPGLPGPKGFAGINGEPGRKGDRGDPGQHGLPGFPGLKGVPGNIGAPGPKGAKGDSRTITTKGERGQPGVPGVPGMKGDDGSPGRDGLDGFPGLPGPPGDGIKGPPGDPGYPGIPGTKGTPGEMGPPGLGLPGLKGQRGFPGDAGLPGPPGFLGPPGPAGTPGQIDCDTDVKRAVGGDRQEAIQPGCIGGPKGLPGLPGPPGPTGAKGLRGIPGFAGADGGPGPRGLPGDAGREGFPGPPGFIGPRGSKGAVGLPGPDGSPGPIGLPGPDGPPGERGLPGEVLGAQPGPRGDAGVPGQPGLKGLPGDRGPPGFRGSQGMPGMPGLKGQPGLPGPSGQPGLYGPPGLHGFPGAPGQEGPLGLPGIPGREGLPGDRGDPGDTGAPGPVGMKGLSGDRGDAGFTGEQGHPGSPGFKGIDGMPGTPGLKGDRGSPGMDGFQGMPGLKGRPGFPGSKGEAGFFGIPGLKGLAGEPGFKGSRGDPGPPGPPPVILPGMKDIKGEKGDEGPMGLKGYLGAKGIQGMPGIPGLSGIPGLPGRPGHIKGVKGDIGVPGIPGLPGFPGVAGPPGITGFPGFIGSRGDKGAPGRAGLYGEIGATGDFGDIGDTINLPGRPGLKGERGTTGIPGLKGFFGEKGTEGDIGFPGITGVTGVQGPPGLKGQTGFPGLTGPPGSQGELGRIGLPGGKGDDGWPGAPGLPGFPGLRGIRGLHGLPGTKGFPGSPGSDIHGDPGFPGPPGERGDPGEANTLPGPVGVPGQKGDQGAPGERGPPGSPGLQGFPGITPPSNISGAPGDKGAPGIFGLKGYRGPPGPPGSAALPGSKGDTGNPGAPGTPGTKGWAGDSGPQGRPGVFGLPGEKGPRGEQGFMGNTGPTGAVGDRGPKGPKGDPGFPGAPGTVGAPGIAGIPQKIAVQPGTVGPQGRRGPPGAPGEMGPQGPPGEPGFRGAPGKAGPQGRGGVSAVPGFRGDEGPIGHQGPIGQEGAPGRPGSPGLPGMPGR
Data set [5] deals with type I collagen from calf skin (calf) (UniProt P02453). The description is as above.
Chain of UniProt P02453 (P02453 162-1217, chain 1 of 2): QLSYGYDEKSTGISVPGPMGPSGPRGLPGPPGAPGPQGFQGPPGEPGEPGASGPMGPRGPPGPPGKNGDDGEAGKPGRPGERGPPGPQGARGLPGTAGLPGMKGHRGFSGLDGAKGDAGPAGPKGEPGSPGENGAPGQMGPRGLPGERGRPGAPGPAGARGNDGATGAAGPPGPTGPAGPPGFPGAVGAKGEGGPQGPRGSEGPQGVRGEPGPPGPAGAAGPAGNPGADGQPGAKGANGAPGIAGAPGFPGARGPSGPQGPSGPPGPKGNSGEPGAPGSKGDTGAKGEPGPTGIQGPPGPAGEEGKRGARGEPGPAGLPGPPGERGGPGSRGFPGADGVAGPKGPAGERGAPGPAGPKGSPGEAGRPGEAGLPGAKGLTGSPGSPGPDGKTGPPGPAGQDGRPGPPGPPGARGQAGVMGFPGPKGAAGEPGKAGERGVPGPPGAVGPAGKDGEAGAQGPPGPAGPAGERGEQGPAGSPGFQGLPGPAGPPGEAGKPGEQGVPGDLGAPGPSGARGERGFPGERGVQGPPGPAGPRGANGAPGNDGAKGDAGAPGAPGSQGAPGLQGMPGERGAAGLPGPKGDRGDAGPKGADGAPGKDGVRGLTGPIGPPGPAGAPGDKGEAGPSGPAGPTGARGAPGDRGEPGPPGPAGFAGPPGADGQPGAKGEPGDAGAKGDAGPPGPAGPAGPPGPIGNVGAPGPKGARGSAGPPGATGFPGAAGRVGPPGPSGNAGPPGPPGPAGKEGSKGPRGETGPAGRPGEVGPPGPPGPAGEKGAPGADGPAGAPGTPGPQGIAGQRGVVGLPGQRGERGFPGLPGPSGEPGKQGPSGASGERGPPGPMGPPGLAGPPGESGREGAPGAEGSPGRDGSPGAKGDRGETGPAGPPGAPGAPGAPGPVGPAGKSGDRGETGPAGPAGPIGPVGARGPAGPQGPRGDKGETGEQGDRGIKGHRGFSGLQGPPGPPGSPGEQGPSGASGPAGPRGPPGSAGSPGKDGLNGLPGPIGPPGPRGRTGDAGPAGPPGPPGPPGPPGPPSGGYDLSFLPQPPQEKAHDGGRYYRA
Chain of UniProt P02453 (P02465 80-1117, chain 2 of 2, further chain): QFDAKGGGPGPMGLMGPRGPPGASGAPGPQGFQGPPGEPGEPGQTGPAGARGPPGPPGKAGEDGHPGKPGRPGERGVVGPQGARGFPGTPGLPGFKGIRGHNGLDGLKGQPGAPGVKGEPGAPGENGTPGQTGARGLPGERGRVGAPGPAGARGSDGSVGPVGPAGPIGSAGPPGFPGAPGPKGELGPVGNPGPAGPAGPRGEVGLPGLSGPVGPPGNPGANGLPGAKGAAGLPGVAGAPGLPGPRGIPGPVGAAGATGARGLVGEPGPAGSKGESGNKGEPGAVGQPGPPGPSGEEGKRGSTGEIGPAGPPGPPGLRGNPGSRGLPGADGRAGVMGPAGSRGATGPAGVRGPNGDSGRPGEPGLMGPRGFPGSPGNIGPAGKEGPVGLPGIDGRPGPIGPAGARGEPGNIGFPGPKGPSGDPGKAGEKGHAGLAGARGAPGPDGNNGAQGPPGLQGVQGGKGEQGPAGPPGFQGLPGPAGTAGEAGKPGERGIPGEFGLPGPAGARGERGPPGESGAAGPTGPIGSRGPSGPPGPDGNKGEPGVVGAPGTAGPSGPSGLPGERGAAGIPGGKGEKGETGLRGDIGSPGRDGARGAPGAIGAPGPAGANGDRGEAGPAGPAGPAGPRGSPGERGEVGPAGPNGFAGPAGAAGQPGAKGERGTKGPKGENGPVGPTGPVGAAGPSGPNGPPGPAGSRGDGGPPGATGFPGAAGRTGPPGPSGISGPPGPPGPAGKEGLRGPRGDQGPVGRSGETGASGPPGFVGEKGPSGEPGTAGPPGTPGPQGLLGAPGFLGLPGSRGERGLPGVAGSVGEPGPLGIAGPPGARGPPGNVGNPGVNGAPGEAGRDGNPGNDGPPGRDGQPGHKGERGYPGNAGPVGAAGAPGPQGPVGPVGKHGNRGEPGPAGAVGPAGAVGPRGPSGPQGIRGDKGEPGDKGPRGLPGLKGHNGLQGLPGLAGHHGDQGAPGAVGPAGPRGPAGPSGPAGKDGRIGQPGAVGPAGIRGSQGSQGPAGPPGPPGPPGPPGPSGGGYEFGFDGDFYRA
Data set [6] concerns the target bovine serum albumin (bovine) (UniProt P02769). The data set is described as above.
Data set [7] concerns the target laminin from the basement membrane of Engelbreth-Holm-Swarm mouse sarcoma (mouse) (UniProt P19137). The data set is described as above.

Consider HN001 peptidase pepO, for which, in data set [1], the “height of the HPLC peak of unhydrolysed αs1-casein(1-17) after incubation with pepO-transformed HN001 (non-transformed: approximately 250 mAU)” value was “the major peak of unhydrolysed αs1-casein(1-17) had a height of approximately 150 mAU”.

For the substance “mucus adhesion promoting (mapA) protein of Lactobacillus reuteri”, the Relative mapA Binding (relative density) was 2.57 in data set [2]; 0.67 in data set [3]; 0.78 in data set [4]; 1.02 in data set [5]; 0.76 in data set [6]; 0.83 in data set [7].
